What all share (test): cell-based or functional assay
The target of one assay is GLP-1 receptor.
Another assay has as its target T1, GIP receptor.
T1 sequence (P48546 whole entry, species assumed, looked up): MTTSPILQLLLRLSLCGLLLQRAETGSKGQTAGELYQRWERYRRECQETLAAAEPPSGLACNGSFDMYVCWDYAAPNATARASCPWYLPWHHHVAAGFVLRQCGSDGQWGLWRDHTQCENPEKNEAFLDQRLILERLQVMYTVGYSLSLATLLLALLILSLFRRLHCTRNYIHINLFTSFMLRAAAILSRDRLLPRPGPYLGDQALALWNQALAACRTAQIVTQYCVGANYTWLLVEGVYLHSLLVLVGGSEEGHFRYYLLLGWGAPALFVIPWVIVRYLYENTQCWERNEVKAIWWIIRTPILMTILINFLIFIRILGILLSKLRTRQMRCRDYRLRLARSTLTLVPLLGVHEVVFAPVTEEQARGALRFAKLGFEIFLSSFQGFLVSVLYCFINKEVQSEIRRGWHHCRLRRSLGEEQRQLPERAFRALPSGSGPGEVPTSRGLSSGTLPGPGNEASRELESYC

In the next assay the target is glucagon receptor.

The values that follow come from US20120329707A1 (INDIANA UNIVERSITY RESEARCH AND TECHNOLOGY, published 2012).

Numbered stars: 1 amine (or outer) side, 2 acyl side, 3 side chain; on linkers, the order of the positions; unused ones are H or OH. Square brackets hold non-standard residues; d marks the D form. Primed or numbered codes have the meaning given here. Side chains are listed from the residue outwards. Ends that are not written are not given here. * marks the point of attachment. 40K‑TE PEG = 40 kDa PEG covalently bound via thioether, formed by reaction of the free thiol of the peptide (Cys side chain) with an iodoacetic-functionalized PEG; 40K‑TE PEG″ = 40 kDa PEG bound to Cys via thioether made from an iodoacetyl-functionalised PEG; γGlu = O=C(O)[C@H](CCC(=O)[*:2])N[*:1]; Palmitoyl = CCCCCCCCCCCCCCCC(=O)*; Aib = CC(C)(N)C(=O)O

As for H[Aib]QGTFTSDYSKYLDEKRA[Aib]EFVC(40K‑TE PEG)WLMDT-NH2 [peptide of SEQ ID NO: 15], the “EC50 (nM) at GLP-1 receptor” value in the assay with GLP-1 receptor stood at 0.071 nM. The “EC50 (nM) at GIP receptor” value with GIP receptor is 316 nM. For the same molecule, the “EC50 (nM) at glucagon receptor” value with glucagon receptor came out at 1.1 nM.

B1: peptide of SEQ ID NO: 36 (peptide)
peptide: H[Aib]QGTFTSDK([γGlu-Palmitoyl])SKYLD[Aib]RAAQDFVQWLKDGRG-NH2
modifications: N-terminus assumed
SMILES: CCCCCCCCCCCCCCCC(=O)N[C@@H](CCC(=O)NCCCC[C@H](NC(=O)[C@H](CC(=O)O)NC(=O)[C@H](CO)NC(=O)[C@@H](NC(=O)[C@H](Cc1ccccc1)NC(=O)[C@@H](NC(=O)CNC(=O)[C@H](CCC(N)=O)NC(=O)C(C)(C)NC(=O)[C@@H](N)Cc1c[nH]cn1)[C@@H](C)O)[C@@H](C)O)C(=O)N[C@@H](CO)C(=O)N[C@@H](CCCCN)C(=O)N[C@@H](Cc1ccc(O)cc1)C(=O)N[C@@H](CC(C)C)C(=O)N[C@@H](CC(=O)O)C(=O)NC(C)(C)C(=O)N[C@@H](CCCNC(=N)N)C(=O)N[C@@H](C)C(=O)N[C@@H](C)C(=O)N[C@@H](CCC(N)=O)C(=O)N[C@@H](CC(=O)O)C(=O)N[C@@H](Cc1ccccc1)C(=O)N[C@H](C(=O)N[C@@H](CCC(N)=O)C(=O)N[C@@H](Cc1c[nH]c2ccccc12)C(=O)N[C@@H](CC(C)C)C(=O)N[C@@H](CCCCN)C(=O)N[C@@H](CC(=O)O)C(=O)NCC(=O)N[C@@H](CCCNC(=N)N)C(=O)NCC(N)=O)C(C)C)C(=O)O
In the case of B1, in the assay with GLP-1 receptor, the “EC50 (nM) at GLP-1 receptor” value stood at 0.003 nM. The “EC50 (nM) at GIP receptor” value with GIP receptor is 0.47 nM. Further, the “EC50 (nM) at glucagon receptor” value with glucagon receptor came to 0.028 nM.
Turning to H[Aib]QGTFTSDYSKYLDERRA[Aib]EFVC(40K‑TE PEG″)WLLDGGPSSGAPPPS-NH2 [peptide of SEQ ID NO: 35], the “EC50 (nM) at GLP-1 receptor” value with GLP-1 receptor was 0.085 nM. Further, the “EC50 (nM) at GIP receptor” value with GIP receptor was 16.1 nM. For the same molecule, the “EC50 (nM) at glucagon receptor” value with glucagon receptor was found to be 1.18 nM.
For H[Aib]QGTFTSDK([γGlu-γGlu-Palmitoyl])SKYLD[Aib]RAAQDFVQWLMKTK[dE]-OH [peptide of SEQ ID NO: 37], the “EC50 (nM) at GLP-1 receptor” value in the assay with GLP-1 receptor was determined as 0.016 nM. In addition, in the assay with GIP receptor, the “EC50 (nM) at GIP receptor” value came to 3.3 nM. Further, the “EC50 (nM) at glucagon receptor” value in the assay with glucagon receptor is 0.018 nM.
